Measurements reported in patent publication US20120141538A1 (UNIVERSITE PIERRE ET MARIE CURIE PARIS VI, published 2012).
Residue numbers refer to the chain shown, from its start.

How the values were obtained:
human CX3CR1 receptor [1] = molecular target: T1, human CX3CR1 receptor (human, UniProt P49238 1-355); assay: competitive radioligand binding, HEK-CX3CR1 cells, [125I]-CX3CL1 tracer
T1 construct: Expressed on stably transfected HEK or CHO cells, or endogenous on human PBMC (CD8+ T cells, NK cells); also called HEK-CX3CR1 cells; CHO-CX3CR1 cells
T1 sequence: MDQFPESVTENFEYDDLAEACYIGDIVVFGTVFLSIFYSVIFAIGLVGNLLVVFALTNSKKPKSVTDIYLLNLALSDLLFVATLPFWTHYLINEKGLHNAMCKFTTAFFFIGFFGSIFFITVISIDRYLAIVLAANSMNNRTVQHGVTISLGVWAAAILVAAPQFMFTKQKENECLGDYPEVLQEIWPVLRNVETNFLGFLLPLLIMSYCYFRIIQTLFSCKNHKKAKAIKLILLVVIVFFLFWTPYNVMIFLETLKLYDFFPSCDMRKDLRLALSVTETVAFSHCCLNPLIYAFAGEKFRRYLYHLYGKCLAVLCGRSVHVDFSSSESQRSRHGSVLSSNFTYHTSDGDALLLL
Protocol: (§1) Assays were performed as previously described by Moatti et al. (2001, Blood 97, 1925-8). Competitive binding to HEK-CX3CR1 and CHO-CX3CR1 cells was performed with 50 pM [¹²⁵I]-CX3CL1 (Amersham General Electric, Saclay, France) plus variable amounts of unlabeled ligand. Each concentration was assayed in duplicate. After 2 h at 37° C., cells were washed and radioactivity in the cell pellet was quantified with a gamma counter (LKB Wallac, Saint Quentin en Yvelines, France).
CX3CL1 in a competition binding, with HEK-CX3CR1 cells and [¹²⁵I]-CX3CL1 as a tracer. The F1 analogue interacted with CX3CR1, although with a lower affinity than CX3CL1. […] A similar difference in affinity was apparent when F1 and CX3CL1 were tested on CHO-CX3CR1 cells, and when the affinity of CX3CL1-Ig was compared to that of F1-Ig.

human CX3CR1 receptor [2] = molecular target: T1, human CX3CR1 receptor; assay: phage display selection on HEK-CX3CR1 cells, elution with soluble CX3CL1
Protocol: Phage particles are represented as cylinders (encapsulated phage genome) with multiple heads (pIII-CX3CL1 mutant fusion). […] (3) Stringent washing was used to remove nonspecifically bound phage. (4) An excess of soluble CX3CL1 (sCX3CL1) was added to remove surface-associated phage. Eluted phages were allowed to infect E. coli, and stocks of selected phages were prepared to be used in a new round of selection (steps 1 to 4).
A phage library of CX3CL1 mutants (10¹⁰ CFU) was directly incubated with 5.10⁶ HEK-CX3CR1 or HEK-CCR5 cells growing in 25 cm² tissue culture flasks (Becton Dickinson, Le Pont de Claix, France) at 37° C. at 5% CO₂ in 5 ml of supplemented RPMI-1640 medium. After 1 h, cells were washed 10 times at room temperature with 10 ml of phosphate-buffered saline (PBS) and then scraped from the plate into 10 ml of PBS-0.5% BSA. Cells were then pelleted and incubated for 20 min on ice in elution buffer consisting of an excess of soluble CX3CL1 (10 μM in 100 μl PBS-BSA). Cells were centrifuged (1000×g for 5 min) and supernatant was mixed with log-phase E. coli TG1 for production and purification of stock phage to be used in further rounds of selection, as described by Hartley et al. (2003, J Virol 77, 6637-44).

CCR5 (on HEK-CCR5 cells) = molecular target: T2, CCR5 (on HEK-CCR5 cells) (UniProt P51681 1-352, limits assumed); assay: flow cytometry of phage on cells
T2 construct: whole, on cells; also called CCR5-expressing cells
T2 sequence (P51681 whole entry): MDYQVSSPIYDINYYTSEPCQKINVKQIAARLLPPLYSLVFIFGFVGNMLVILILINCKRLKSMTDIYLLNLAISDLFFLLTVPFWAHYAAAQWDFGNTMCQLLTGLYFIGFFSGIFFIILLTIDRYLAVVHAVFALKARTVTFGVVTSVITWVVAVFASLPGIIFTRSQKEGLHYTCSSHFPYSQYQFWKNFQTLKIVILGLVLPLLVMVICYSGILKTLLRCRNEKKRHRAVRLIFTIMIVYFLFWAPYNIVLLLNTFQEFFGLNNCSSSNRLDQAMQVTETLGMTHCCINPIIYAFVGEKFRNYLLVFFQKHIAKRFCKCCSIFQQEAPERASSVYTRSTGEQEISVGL

human CX3CR1 receptor [3] = molecular target: T1, human CX3CR1 receptor; assay: flow cytometry of phage on cells
human CX3CR1 receptor [4] = molecular target: T1, human CX3CR1 receptor; assay: competitive radioligand binding, CX3CR1-expressing CHO cells, 125I-FKN tracer
Protocol: as §1
(§2) Assays for determining the competitive radioligand binding of F2 and of F2-Ig to CX3CR1 were carried out as described in Example 1.8.

human CX3CR1 receptor [5] = molecular target: T1, human CX3CR1 receptor; assay: competitive radioligand binding, CX3CR1-expressing HEK cells, 125I-FKN tracer
Protocol: as §1, §2

B1: F1 (CX3CL1 analogue, soluble chemokine domain with N-terminal sequence ILDNGVS) (ligand)
chain: ILDNGVSKCNITCSKMTSKIPVALLIHYQQNQASCGKRAIILETRQHRLFCADPKEQWVKDAMQHLDRQAAALTRNG
notes: also called F1 analogue; soluble F1
Human CX3CR1 receptor [1]
  IC50: 1.9 nM
  Log IC50: -8.73

B2: phage-displayed CX3CL1 mutant with N-terminal sequence SLDHGLS (other, not shown: large carriers)
chain: B1 chain with I1S, N4H, V6L
notes: Selected phage clone (antagonist selection); not tested singly
Human CX3CR1 receptor [2]
  binding result: binds

B3: phage-displayed CX3CL1 mutant with N-terminal sequence TLPQGLA (other, not shown: large carriers)
chain: B1 chain with I1T, D3P, N4Q, V6L, S7A
notes: as for B2
Human CX3CR1 receptor [2]
  binding result: binds

B4: phage-F1 (phage clone ILDNGVS) (other, not shown: large carriers)
chain: B1 chain
CCR5 (on HEK-CCR5 cells)
  binding result: no binding

B5: phage-displayed CX3CL1 mutant with N-terminal sequence SLIPVVP (other, not shown: large carriers)
chain: B1 chain with I1S, D3I, N4P, G5V, S7P
notes: as for B2
Human CX3CR1 receptor [2]
  binding result: binds

B6: phage-displayed CX3CL1 mutant with N-terminal sequence QRDSVLA (other, not shown: large carriers)
chain: B1 chain with I1Q, L2R, N4S, G5V, V6L, S7A
notes: as for B2
Human CX3CR1 receptor [2]
  binding result: binds

B7: phage-displayed CX3CL1 mutant with N-terminal sequence WLSQGLA (other, not shown: large carriers)
chain: B1 chain with I1W, D3S, N4Q, V6L, S7A
notes: as for B2
Human CX3CR1 receptor [2]
  binding result: binds

B8: phage-displayed CX3CL1 mutant with N-terminal sequence TLAQGLP (other, not shown: large carriers)
chain: B1 chain with I1T, D3A, N4Q, V6L, S7P
notes: as for B2
Human CX3CR1 receptor [2]
  binding result: binds

B9: CCL5-expressing phage (other, UniProt P13501 24-91, looked up, not shown: large carriers)
chain: SPYSSDTTPCCFAYIARPLPRAHIKEYFYTSGKCSNPAVVFVTRKNRQVCANPEKKWVREYINSLEMS
notes: Control phage
Human CX3CR1 receptor [3]
  binding result: no binding

B10: F2-Ig (F2 fused to a domain of an immunoglobulin) (Fc fusion)
chain: QPQGVSKCNITCSKMTSKIPVALLIHYQQNQASCGKRAIILETRQHRLFCADPKEQWVKDAMQHLDRQAAALTRNGAAAHPRGPTIKPCPPCKCPAPNLEGGPSVFIFPPKIKDVLMISLSPIVTCVVVDVSEDDPDVQISWFVNNVEVHTAQTQTHREDYDSTLRVVSALPIQHQDWMSGKAFACAVNNKDLPAPIGRTISKPKGSVRAPQVYVLPPPEEEMTKKQVTLTCMVTDFMPEDIYVEWTNNGKTELNYKNTEPVLDSDGSYFMYSKLRVEKKNWVERNSYSCSVVHEGLHNHHTTKSFSRPPGK
Human CX3CR1 receptor [4]
  IC50: 0.39 nM

B11: CX3CL1-Ig (CX3CL1 chemokine domain fused to murine Fc) (Fc fusion)
chain: QHHGVTKCNITCSKMTSKIPVALLIHYQQNQASCGKRAIILETRQHRLFCADPKEQWVKDAMQHLDRQAAALTRNGEPRGPTIKPCPPCKCPAPNLEGGPSVFIFPPKIKDVLMISLSPIVTCVVVDVSEDDPDVQISWFVNNVEVHTAQTQTHREDYNSTLRVVSALPIQHQDWMSGKAFACAVNNKDLPAPIERTISKPKGSVRAPQVYVLPPPEEEMTKKQVTLTCMVTDFMPEDIYVEWTNNGKTELNYKNTEPVLDSDGSYFMYSKLRVEKKNWVERNSYSCSVVHEGLHNHHTTKSFSRTPGK
notes: domain: Fcγ2a fragment; also called FKN-Ig
Human CX3CR1 receptor [4]
  IC50: 1.47 nM

B12: CX3CL1 (native human soluble chemokine) (ligand)
chain: QHHGVTKCNITCSKMTSKIPVALLIHYQQNQASCGKRAIILETRQHRLFCADPKEQWVKDAMQHLDRQAAALTRNG
notes: The tracer is iodinated CX3CL1 from Amersham; also called fractalkine; FKN
Human CX3CR1 receptor [5]
  IC50: 0.58 nM
Human CX3CR1 receptor [1]
  IC50: 0.16 nM
  Log IC50: -9.79

B13: CX3CL1-phage (human CX3CL1 chemokine domain displayed on phage) (other, not shown: large carriers)
chain: B12 chain
notes: also called phage-chemokine
CCR5 (on HEK-CCR5 cells)
  binding result: no binding

B14: F2 (CX3CL1 analogue with N-terminal sequence QPQGVS) (ligand)
chain: B12 chain with H2P, H3Q, T6S
notes: Produced by chemical synthesis
Human CX3CR1 receptor [5]
  IC50: 0.05 nM
